According to US8815803B2, “Method for increasing body height comprising systemic administration of CNP-53” (priority 2004, dated 2014):
Where “and” joins values, the source holds several entries; their conditions need not be identical. Identical values can stand only once. Entries after “also recorded” stand apart in the source; their conditions may differ.

Experiments:
Type in all cases: in vivo
[1] = CNP expression in CNP transgenic mouse: CNP-22 EIA, blood plasma
Description: (§1) A CNP-22 EIA measuring kit (PHOENIX PHARMACEUTICALS INC.) was used for the determination of a CNP level.
(§2) Three each of 7-week old male and female CNP transgenic mice, as well as 3 each of male and female normal litter of mice, were euthanized by exsanguination from the postcava under ether anesthesia.
One mg of ethylenediaminetetraacetate-4Na (Junsei Chemical Co., Ltd., Japan) and 2 trypsin-inhibition units of aprotinin (Sigma) were added to the drawn blood and agitated to separate blood plasma, which was used as a sample for the determination of CNP-22 levels.

[2] = CNP expression in CNP transgenic mouse: CNP-22 EIA, liver
Description: as §1, §2
The liver was homogenized in a Waring blender (Physcotron), and after centrifugation (at 2,000 rpm for 5 minutes), the supernatant was used as a sample for the determination of CNP-22 levels.

[3] = system: mice; assay: Growth curve of CNP transgenic mouse (naso-anal length)
Description: The naso-anal lengths (in cm) of female and male CNP transgenic mice, as well as those of female and male normal littermates, were measured on time over a period of 2 to 9 weeks (FIG. 4).

[4] = system: growth cartilage of femora; assay: Histological analysis of the growth cartilage of CNP transgenic mouse; conditions: 9-week old female CNP transgenic mice, patellar surface femur
From the text: For the purpose of analyzing the thickness of the growth cartilage histologically, 5 each of 9-week old female CNP transgenic mice and female normal litter of mice were euthanized by exsanguination from the postcava under ether anesthesia, and the thigh bone was fixed in 20% formalin for a week. After soaking in a 20% aqueous solution of EDTA-4Na (pH 7.4) (Junsei Chemical Co., Ltd., Japan) for decalcification, the patellar surface femur was subjected to a midline sagittal section and embedded in paraffin by conventional method to prepare a paraffin block. A 4 μm-thick section was further sectioned with a microtome to prepare paraffin sections, which were stained with hematoxylin and eosin. For the thickness of the growth cartilage, one microscopic field observed using an objective lens (×10) was incorporated into an image analysis software (IPAP, Sumika Technoservice, Japan), and each thickness of the resting layer, proliferating layer and hypertrophic layer was measured at 5 points in the microscopic field using the same software, and the calculated mean value thereof was taken as the thickness of each layer of the individual. The total of the three layers was regarded as the thickness of the growth cartilage of the individual. […]

[5] = 7-week old CNP transgenic mice, individual animal, CNP-22 EIA
[6] = CNP transgenic mouse vs wild type, means compared

**Q.** Which “CNP level, Plasma” value [1, 5] does the source give for “CNP: C-type natriuretic peptide, a GC-B activator, overexpressed from murine CNP cDNA transgene in mice; measured with CNP-22 EIA kit” here?
**A.** Its value is 11.1 ng/mL and 2.6 ng/mL and 10.3 ng/mL.

**Q.** And the “CNP level, Plasma, mean ± SD” value ([1]; 7-week old CNP transgenic mice, mean ± SD of No. 1-3)?
**A.** Its value is 8.0 ± 4.7 ng/mL.

**Q.** What about the “CNP level in blood plasma, higher than the wild type” value [1, 6] of the same substance?
**A.** The value was “about 24 fold”.

**Q.** And the “CNP level, Liver” value [2, 5]?
**A.** The value was 370.0 ng/g tissue and 206.7 ng/g tissue and 293.3 ng/g tissue.

**Q.** And the “CNP level, Liver, mean ± SD” value ([2]; 7-week old CNP transgenic mice, mean ± SD of No. 1-3, p < 0.01 vs wild type)?
**A.** Its value is 290 ± 81.7 ng/g tissue.

**Q.** What about the “CNP level in the liver, higher than the wild type” value [2, 6] of the same substance?
**A.** The value was “about 10 fold”.

**Q.** What about the “naso-anal length vs normal litter (WT)” value ([3]; female CNP transgenic mice, at 2 weeks old and thereafter) of the same substance?
**A.** The value was “significantly greater”.

**Q.** What about the “naso-anal length vs normal littermates” value ([3]; female and male CNP transgenic mice, over a period of 2 to 9 weeks) of the same substance?
**A.** The value was “greater than those of the normal littermates; also recorded: greater than those of the normal litter”.

**Q.** And the “naso-anal length vs normal litter (WT)” value ([3]; male CNP transgenic mice, at 4 weeks old and thereafter)?
**A.** The value was “significantly greater”.

**Q.** What about the “thickness of resting layer, proliferating layer, hypertrophic layer and total thickness of growth cartilage vs wild type” value [4] of the same substance?
**A.** The value was “greater with statistical significance; also recorded: significantly greater”.
